Experimental data taken from article PMC7393355, “A FRET-based screening method to detect potential inhibitors of the binding of CNNM3 to PRL2” (Scientific Reports, 2020).

T1: non-fluorescence protein-tagged PRL2 (human, UniProt Q12974-1 1-167)
T1 construct: human PRL2, NP_001356788.1, residues 1-167; Subcloned into pET28a; the limits 1-167 are printed for human PRL2 in the same paragraph; also called non-CyPet-tagged PRL2; source: E. coli Rosetta (DE3), purified (Ni-NTA, SEC)
T1 sequence (looked up): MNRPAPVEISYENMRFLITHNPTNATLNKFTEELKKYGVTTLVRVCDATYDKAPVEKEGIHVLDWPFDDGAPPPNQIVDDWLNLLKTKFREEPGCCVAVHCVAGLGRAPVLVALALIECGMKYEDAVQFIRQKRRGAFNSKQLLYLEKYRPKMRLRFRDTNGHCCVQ

T2: PRL2 (residues 1-167) with CyPet at its N-terminus (human, UniProt Q12974-1 1-167)
T2 construct: human PRL2 (phosphatase of regenerating liver 2), NP_001356788.1, residues 1-167; GS linker between CyPet and PRL2; pET22c derivative; Methods and discussion sometimes call it YPet-PRL2; also called CyPet-PRL2; CyPet-PRL2 WT; source: E. coli Rosetta (DE3), purified (Ni-NTA, SEC); not shown: CyPet (monomeric mutation A206K), N-terminal, kept
T2 sequence (looked up): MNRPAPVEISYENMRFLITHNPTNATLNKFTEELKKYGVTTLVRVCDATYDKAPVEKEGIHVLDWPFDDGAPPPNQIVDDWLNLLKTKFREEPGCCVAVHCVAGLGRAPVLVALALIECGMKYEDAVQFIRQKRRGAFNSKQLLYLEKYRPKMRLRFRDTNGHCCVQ


Tests used:
[1] = biological target: T1, non-fluorescence protein-tagged PRL2; test: ITC; cell 20 uM PRL2, syringe 200 uM CNNM3 CBS protein, 25 C, 20 mM Tris-HCl pH 7.0, 50 mM NaCl, 1 mM TCEP; details: both partners purified
[2] = biological target: T2, PRL2 (residues 1-167) with CyPet at its …; test: FRET or BRET; 30 nM CyPet-PRL2 mixed with serial dilutions of CNNM3 CBS-YPet (0-300 nM) in 96-well plates, TBS (50 mM Tris-HCl pH 8.0, 150 mM NaCl), R.T. 1 h, excitation 435 nm, emission 530 nm; details: both partners purified

Kd [1] [nM]	Kd [2] [nM]	Binder
15.2 ± 5	–	non-YPet-tagged CNNM3 CBS domain (domain or fragment, human, UniProt Q8NE01 301-452, looked up, CBS domain of human CNNM3, XP_011509259.1, residues 301-452; Subcloned into pET28a; the limits 301-452 are printed for the CBS domain in the same paragraph; also called non-fluorescence-tagged CNNM3; CNNM3 CBS protein; source: E. coli Rosetta (DE3), purified (Ni-NTA, anion exchange)) YSDLSKGVLRCRTVEDVLTPLEDCFMLDASTVLDFGVLASIMQSGHTRIPVYEEERSNIVDMLYLKDLAFVDPEDCTPLSTITRFYNHPLHFVFNDTKLDAVLEEFKRGKSHLAIVQKVNNEGEGDPFYEVLGLVTLEDVIEEIIRSEILDE
–	108 ± 16	CNNM3 CBS domain (residues 301-452) with YPet at its C-terminus (domain or fragment, human, UniProt Q8NE01 301-452, looked up, CBS domain of human CNNM3 (cyclin M3), XP_011509259.1, residues 301-452; GS linker between the CBS domain and YPet; pET22c derivative; Methods and discussion sometimes call it CNNM3 CBS-CyPet; also called CNNM3-YPet; CNNM3 CBS-YPet; source: E. coli Rosetta (DE3), purified (Ni-NTA, anion exchange); not shown: YPet, C-terminal, kept) YSDLSKGVLRCRTVEDVLTPLEDCFMLDASTVLDFGVLASIMQSGHTRIPVYEEERSNIVDMLYLKDLAFVDPEDCTPLSTITRFYNHPLHFVFNDTKLDAVLEEFKRGKSHLAIVQKVNNEGEGDPFYEVLGLVTLEDVIEEIIRSEILDE
